Test results reported in PMC10729150 (Journal for Immunotherapy of Cancer, 2023).

Columns and labels:
[1] = target: T1, Recombinant human CTLA-4-Fc (human, UniProt P16410); assay: SPR
[2] = target: T1, Recombinant human CTLA-4-Fc; assay: ELISA

T1 sequence (P16410 36-161): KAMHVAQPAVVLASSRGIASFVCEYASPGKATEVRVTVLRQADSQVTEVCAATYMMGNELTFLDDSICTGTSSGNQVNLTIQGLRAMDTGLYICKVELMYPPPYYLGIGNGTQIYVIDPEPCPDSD

| Binder | Kd [1] [nM] | Kd [2] [nM] |
| --- | --- | --- |
| XTX100 (antibody, V domains shown) VH: QVQLVQSGAEVKKPGSSVKVSCKASGYTFTNYFMNWVRQAPGQGLEWMGRVDPEQGRADYAEKFKKRVTITADKSTSTAYMELSSLRSEDTAVYYCARRAMDNYGFAYWGQGTLVTVSS VL: EIVLTQSPDFQSVTPKEKVTITCSANSALSYMYWYQQKPDQSPKLWVHGTSNLASGVPSRFSGSGSGTDFTLTINSLEAEDAATYYCHHWSNTQWTFGGGTKVEIK | 0.091 | 0.16 |
| XTX101+MMP (proteolytically activated XTX101) (antibody, V domains shown) VH: QVQLVQSGAEVKKPGSSVKVSCKASGYTFTNYFMNWVRQAPGQGLEWMGRVDPEQGRADYAEKFKKRVTITADKSTSTAYMELSSLRSEDTAVYYCARRAMDNYGFAYWGQGTLVTVSS VL: EIVLTQSPDFQSVTPKEKVTITCSANSALSYMYWYQQKPDQSPKLWVHGTSNLASGVPSRFSGSGSGTDFTLTINSLEAEDAATYYCHHWSNTQWTFGGGTKVEIK | 0.127 | 0.24 |
